What all share (assay type): biochemical
Data set [1] can be described thus: acidolysis activity of lipases using MCT and linoleic acid. Particulars: MCT (1 gr), linoleic acid (0.55 gr), 500 mg enzyme preparation, 50° C., solvent-free. The protocol: (§1) The acidolysis activity of crude enzymes and enzymes adapted for synthetic reactions was assayed by adding an enzyme preparation (500 mg) into a 10 ml reaction solution containing MCT and a free fatty acid where the molar ratio between both substrates was 1:1. […] Samples (0.1 ml) were taken from the reaction mixture and mixed with 10 ml solvent comprised of acetone-dichloromethane at a ratio of 90:10. The samples were filtered through a Millipore filter (pore size 0.45 μm) and then injected to the HPLC.
(§2) The reaction progress was followed by analyzing the triglyceride composition in the reaction medium before and after the enzymatic reaction using an HPLC equipped with an ELSD (Evaporative light Scattering Detector). The HPLC was equipped with a LiChrosorb CH-18 Super (250×4 mm, 5 μm, MERCK). The HPLC running conditions were as follows: mobile phase A, Acetonitrile/Dichloromethane/Acetone (80/15/5); mobile phase B: […] (20/60/20). The flow rate was 1 ml/min and the gradient was 0 to 100% B for 30 min.
(§3) The substrate conversion was calculated as follows: Conversion %=100×(Sum of area of the 4 peaks representing the MCT at time zero)−([…])per Sum of area of the 4 peaks representing the MCT at time zero. The MCT conversion (%) was used as an indicative parameter for the efficiency of enzyme activity to obtain the desired product. Results
(§4) Tables 1-12 show the acidolysis activity of various lipases, which were screened for their ability to catalyze the reaction between MCT and free fatty acids in a solvent-free system according to the enzymatically catalyzed reaction presented in FIG. 1. All lipases were used in their crude form as supplied by the manufacturer (Sigma) or immobilized on an insoluble matrix. Immobilized lipases were activated before their use in the acidolysis reaction containing MCT and a long-chain fatty acid by pretreatment with a biphase system containing 50% triglyceride oil such as olive oil, soy oil and the like and 50% water. This pretreatment lead to the activation of the immobilized enzymes for synthetic applications. […]

Data set [2] is described as follows: acidolysis activity of lipases using MCT and arachidonic acid. Particulars: for Conversion % (24 h): MCT (1 gr), arachidonic acid (0.6 gr), 500 mg enzyme preparation, 50° C., solvent-free. On the procedure: as §1, §2, §3
(§5) Tables 1-12 show the acidolysis activity of various lipases, which were screened for their ability to catalyze the reaction between MCT and free fatty acids in a solvent-free system according to the enzymatically catalyzed reaction presented in FIG. 1. All lipases were used in their crude form as supplied by the manufacturer (Sigma) or immobilized on an insoluble matrix. Immobilized lipases were activated before their use in the acidolysis reaction containing MCT and a long-chain fatty acid by pretreatment with a biphase system containing 50% triglyceride oil such as olive oil, soy oil and the like and 50% water. This pretreatment lead to the activation of the immobilized enzymes for synthetic applications.
A typical enzyme activation and immobilization procedure used in this example is as follows: 1 g of a crude lipase preparation was dissolved in a 1 L of phosphate buffer solution of an appropriate pH according to the recommendation of the enzyme's manufacturer. 10 g of support matrix (silica, celite, an ion-exchange resin such as DUOLITE® A56, DUOLITE® A7, DUOLITE® XAD761, or Amberlite™ XAD16) were added into the stirred enzyme solution. The slurry was shaken for 8 hours at a temperature of 10° C. Hundred ml of cold acetone was optionally added into the stirred slurry in order to enhance the enzyme immobilization on the matrix surface. […]

Data set [3] can be described thus: acidolysis activity of lipases using MCT and DHA. As to conditions: MCT (1 gr), DHA (0.65 gr), 500 mg enzyme preparation, 50° C., solvent-free. The protocol: as §1, §2, §3, §4
A short description of data set [4]: acidolysis activity of lipases using MCT and lauric acid. As to conditions: MCT (1 gr), lauric acid (0.4 gr), 500 mg enzyme preparation, 50° C., solvent-free.
Experimental: (§8) The acidolysis activity of crude enzymes and enzymes adapted for synthetic reactions was assayed by adding an enzyme preparation (500 mg) into a 10 ml reaction solution containing MCT and a free fatty acid where the molar ratio between both substrates was 1:1. The reaction mixture was shaken for 16 hours at a temperature of 50° C. Samples (0.1 ml) were taken from the reaction mixture and mixed with 10 ml solvent comprised of acetone-dichloromethane at a ratio of 90:10. The samples were filtered through a Millipore filter (pore size 0.45 μm) and then injected to the HPLC.
(§9) The reaction progress was followed by analyzing the triglyceride composition in the reaction medium before and after the enzymatic reaction using an HPLC equipped with an ELSD (Evaporative light Scattering Detector). The HPLC was equipped with a LiChrosorb CH-18 Super (250×4 mm, 5 μm, MERCK). The HPLC running conditions were as follows: mobile phase A, Acetonitrile/Dichloromethane/Acetone (80/15/5); mobile phase B: Acetone/Dichloromethane/Acetone (20/60/20). The flow rate was 1 ml/min and the gradient was 0 to 100% B for 30 min.
(§10) The substrate conversion was calculated as follows: Conversion %=100×(Sum of area of the 4 peaks representing the MCT at time zero)−(Sum of area of the 4 peaks representing the MCT after 16 h reaction time)per Sum of area of the 4 peaks representing the MCT at time zero. The MCT conversion (%) was used as an indicative parameter for the efficiency of enzyme activity to obtain the desired product.
Reaction conditions as described in Table 1, with one modification, namely lauric acid (0.4 gr) was used as the fatty acid.
Data set [5] is described as follows: acidolysis activity of lipases using MCT and caprylic acid. As to conditions: for Conversion % (24 h): MCT (1 gr), caprylic acid (0.28 gr), 500 mg enzyme preparation, 50° C., solvent-free; for acidolysis activity in words, Caprylic acid and MCT: summary of Table 2. On the procedure: as §1, §2, §3, §5
(§6) A typical enzyme activation and immobilization procedure used in this example is as follows: 1 g of a crude lipase preparation was dissolved in a 1 L of phosphate buffer solution of an appropriate pH according to the recommendation of the enzyme's manufacturer. 10 g of support matrix (silica, celite, an ion-exchange resin such as DUOLITE® A56, DUOLITE® A7, DUOLITE® XAD761, or Amberlite™ XAD16) were added into the stirred enzyme solution. The slurry was shaken for 8 hours at a temperature of 10° C. Hundred ml of cold acetone was optionally added into the stirred slurry in order to enhance the enzyme immobilization on the matrix surface. The immobilized enzyme was filtered of from the mixture and then freeze-dried or used wet for the following step. One g of freeze-dried immobilized lipase (water content of less than 2 weight %) or wet immobilized lipase (water content of approx. 20%) was added into a biphase system comprised of 5 g olive oil and 2 g buffer solution of pH7 at room temperature. The mixture was stirred for 10 min. The immobilized lipases was filtered of from the mixture, washed with cold acetone, dried in a desiccator and then used for the acidolysis reaction between MCT and a fatty acyl donor.
(§7) Reaction conditions: MCT (1 gr), caproic acid (0.23 gr), and 500 mg enzyme preparation. The reaction mixture was shaken and thermostated at 50° C. for 16 h. […]

Data set [6] can be described thus: acidolysis activity of lipases using MCT and stearic acid. Particulars: MCT (1 gr), stearic acid (0.56 gr), 500 mg enzyme preparation, 50° C., solvent-free.
Experimental: as §8, §9, §10
All lipases were used in their crude form as supplied by the manufacturer (Sigma) or immobilized on an insoluble matrix. Immobilized lipases were activated before their use in the acidolysis reaction containing MCT and a long-chain fatty acid by pretreatment with a biphase system containing 50% triglyceride oil such as olive oil, soy oil and the like and 50% water. […]
Data set [7] is described as follows: acidolysis activity of lipases using MCT and caproic acid. As to conditions: for Conversion % (24 h): MCT (1 gr), caproic acid (0.23 gr), 500 mg enzyme preparation, 50° C., solvent-free; for acidolysis activity in words, Caproic acid and MCT: summary of Table 1.
Experimental: as §8, §9, §10
Data set [8] can be described thus: acidolysis activity of lipases using MCT and palmitic acid. As to conditions: MCT (1 gr), palmitic acid (0.51 gr), 500 mg enzyme preparation, 50° C., solvent-free. On the procedure: as §1, §2, §3, §4
The nature of data set [9]: acidolysis activity of lipases using MCT and capric acid. Particulars: MCT (1 gr), capric acid (0.34 gr), 500 mg enzyme preparation, 50° C., solvent-free. The protocol: as §1, §2, §3, §4
Data set [10] in a line: acidolysis activity of lipases using MCT and oleic acid. As to conditions: MCT (1 gr), oleic acid (0.56 gr), 500 mg enzyme preparation, 50° C., solvent-free.
Experimental: as §8, §9, §10
Data set [11] can be described thus: acidolysis activity of lipases using MCT and EPA. Particulars: for Conversion % (24 h): MCT (1 gr), EPA (0.6 gr), 500 mg enzyme preparation, 50° C., solvent-free; for efficiency of incorporation of EPA into MCT, in words: summary of Table 11. On the procedure:
as §1, §2, §3, §5, §6, §7

Data set [12] can be described thus: acidolysis activity of lipases using MCT and alpha-linolenic acid. As to conditions: MCT (1 gr), alpha-linolenic acid (0.55 gr), 500 mg enzyme preparation, 50° C., solvent-free.
Experimental: as §8, §9, §10

B1: Porcine pancreas lipase: lipase from porcine pancreas (Sigma), crude or immobilized (protein, UniProt P00591 1-450, looked up)
Pancreatic triacylglycerol …: SEVCFPRLGCFSDDAPWAGIVQRPLKILPWSPKDVDTRFLLYTNQNQNNYQELVADPSTITNSNFRMDRKTRFIIHGFIDKGEEDWLSNICKNLFKVESVNCICVDWKGGSRTGYTQASQNIRIVGAEVAYFVEVLKSSLGYSPSNVHVIGHSLGSHAAGEAGRRTNGTIERITGLDPAEPCFQGTPELVRLDPSDAKFVDVIHTDAAPIIPNLGFGMSQTVGHLDFFPNGGKQMPGCQKNILSQIVDIDGIWEGTRDFVACNHLRSYKYYADSILNPDGFAGFPCDSYNVFTANKCFPCPSEGCPQMGHYADRFPGKTNGVSQVFYLNTGDASNFARWRYKVSVTLSGKKVTGHILVSLFGNEGNSRQYEIYKGTLQPDNTHSDEFDSDVEVGDLQKVKFIWYNNNVINPTLPRVGASKITVERNDGKVYDFCSQETVREEVLLTLNPC
modifications: crude or immobilized
Take B1: the Conversion % in data set [1] is recorded as 5%; in [8] it was 1%; in data set [9], 5%. The “Conversion % (24 h)” value in [2] is 2%; in [3], 5%; in data set [4] it was 6%; in data set [5], 5%; in data set [6], 5%; in data set [7], 6%. For the same molecule, the “Conversion % (24 h)” value in data set [10] is given as 4%; in data set [11], 3%; in data set [12], 6%.

B2: Mucor miehei: lipase of Mucor miehei origin (Sigma), crude or immobilized (protein, UniProt P19515 95-363, looked up)
Lipase: SIDGGIRAATSQEINELTYYTTLSANSYCRTVIPGATWDCIHCDATEDLKIIKTWSTLIYDTNAMVARGDSEKTIYIVFRGSSSIRNWIADLTFVPVSYPPVSGTKVHKGFLDSYGEVQNELVATVLDQFKQYPSYKVAVTGHSLGGATALLCALDLYQREEGLSSSNLFLYTQGQPRVGDPAFANYVVSTGIPYRRTVNERDIVPHLPPAAFGFLHAGEEYWITDNSPETVQVCTSDLETSDCSNSIVPFTSVLDHLSYFGINTGLCT
modifications: crude or immobilized
With B2, the Conversion % in data set [1] came to 41%; in [8], 41%; in data set [9], 39%. Moreover, the “Conversion % (24 h)” value in data set [2] was found to be 3%; in data set [3], 27%; in [4], 38%; in data set [5], 42%; in data set [6], 42%; in [7], 35%. The “Conversion % (24 h)” value in data set [10] was 40%; in data set [11], 25%; in data set [12], 31%. The “acidolysis activity in words, Caprylic acid and MCT” value in [5] is listed as “reasonable acidolysis activity”. Also, in data set [7], the “acidolysis activity in words, Caproic acid and MCT” value is “preferred sources”. Also, in data set [11], the “efficiency of incorporation of EPA into MCT, in words” value was “the most efficient enzymes”.

B3: Rhizomucor miehei: lipase of Rhizomucor miehei origin (Sigma), crude or immobilized (protein, UniProt P19515 95-363, looked up)
Lipase: SIDGGIRAATSQEINELTYYTTLSANSYCRTVIPGATWDCIHCDATEDLKIIKTWSTLIYDTNAMVARGDSEKTIYIVFRGSSSIRNWIADLTFVPVSYPPVSGTKVHKGFLDSYGEVQNELVATVLDQFKQYPSYKVAVTGHSLGGATALLCALDLYQREEGLSSSNLFLYTQGQPRVGDPAFANYVVSTGIPYRRTVNERDIVPHLPPAAFGFLHAGEEYWITDNSPETVQVCTSDLETSDCSNSIVPFTSVLDHLSYFGINTGLCT
modifications: crude or immobilized
In the case of B3, the Conversion % is listed as 35% in [1], 33% in [8] and 37% in data set [9]. For the same molecule, the “Conversion % (24 h)” value in [2] is 15%; in [3], 16%; in [4] it was 39%; in data set [5] it was 37%; in data set [6] it was 37%; in [7], 31%. For the same molecule, the figures for the “Conversion % (24 h)” value in data set [10], in data set [11] and in [12] were 43%, 30% and 39%, respectively. Besides, the “efficiency of incorporation of ARA into MCT, in words” value in data set [2] (summary of Table 10) is on record as “among the most efficient enzymes”. Besides, the “acidolysis activity in words, Caprylic acid and MCT” value in [5] was “reasonable acidolysis activity”. The “acidolysis activity in words, Caproic acid and MCT” value in [7] is reported as “preferred sources”. Further, the “efficiency of incorporation of EPA into MCT, in words” value in data set [11] is “the most efficient enzymes”.

These data come from patent US7919526B2, “Structured triglycerides and emulsions comprising same” (HTL High-Tech Lipids Ltd., priority 2005, dated 2011).
